Laboratory results taken from patent US20260234592.
Entries after “also recorded” stand apart in the source; their conditions may differ.

What was measured:
[1] = target: CBD-TEVrs-bglA (N-terminal His-tagged chitin binding domain, TEVrs ENLYFQG, 6-phospho-β-glucosidase A)
[2] = target: MBP5-TEV-paramyosin ΔSal (maltose binding protein domain and a paramyosin fragment linked by a TEV protease recognition sequence)

Row | Protein | CBD-TEVrs-bglA cleavage over time at 30° C. and 20° C. [1] | Slope of ln(1-(cleavage ratio)) against the concentration of TEV protease, 4° C., 18 hours [1] | CBD-TEVrs-bglA cleavage over time at 30° C. [1] | protease concentration that reaches almost 100% cleavage, 4° C., 18 hours [1] | substrate cleaved, 4° C., 18 hours [1] | substrate cleaved, 0° C., 18 hours [1] | also measured
1 | R49V variant TEV protease (N-terminal His tag; R49V, L56V, S135G, S219V) (protein) GHHHHHHHGESLFKGPRDYNPISSTICHLTNESDGHTTSLYGIGFGPFIITNKHLFVRNNGTLVVQSLHGVFKVKNTTTLQQHLIDGRDMIIIRMPKDFPPFPQKLKFREPQREERICLVTTNFQTKSMSSMVSDTSCTFPSGDGIFWKHWIQTKDGQCGSPLVSTRDGFIVGIHSASNFTNTNNYFTSVPKNFMELLTNQEAQQWVSGWRLNADSVLWGGHKVFMVKPEEPFQPVKEATQLMNE | showed slightly weaker activity than control TEV protease | y = -11.281x - 0.2037 | – | – | – | – | Ratio kR49V/kcontrol = (kcat/KM)R49V/(kcat/KM)control [1]: 2
2 | R49V_L76P variant TEV protease (N-terminal His tag; R49V, L56V, L76P, S135G, S219V) (protein) GHHHHHHHGESLFKGPRDYNPISSTICHLTNESDGHTTSLYGIGFGPFIITNKHLFVRNNGTLVVQSLHGVFKVKNTTTLQQHPIDGRDMIIIRMPKDFPPFPQKLKFREPQREERICLVTTNFQTKSMSSMVSDTSCTFPSGDGIFWKHWIQTKDGQCGSPLVSTRDGFIVGIHSASNFTNTNNYFTSVPKNFMELLTNQEAQQWVSGWRLNADSVLWGGHKVFMVKPEEPFQPVKEATQLMNE | the R49V_L76P variant showed higher activity than L76P variant | y = -11.117x - 0.0916 | all variants performed better that the control | the R49V_L76P variant reached almost 100% cleavage at 0.5 µM | R49V_L76P variant cleaved the substrate by 94% | – | Ratio kR49V-L76P/kcontrol = (kcat/KM)R49V-L76P/(kcat/KM)control [1]: 1.5
3 | L76P variant TEV protease (N-terminal His tag; L56V, L76P, S135G, S219V) (protein) GHHHHHHHGESLFKGPRDYNPISSTICHLTNESDGHTTSLYGIGFGPFIITNKHLFRRNNGTLVVQSLHGVFKVKNTTTLQQHPIDGRDMIIIRMPKDFPPFPQKLKFREPQREERICLVTTNFQTKSMSSMVSDTSCTFPSGDGIFWKHWIQTKDGQCGSPLVSTRDGFIVGIHSASNFTNTNNYFTSVPKNFMELLTNQEAQQWVSGWRLNADSVLWGGHKVFMVKPEEPFQPVKEATQLMNE | At both temperatures, the L76P variant showed higher activity than control TEV protease | y = -13.611x - 0.0596 | – | – | the L76P variant cleaved 87% of the substrate | the L76P variant cleaved 75% of the substrate | Ratio kL76P/kcontrol = (kcat/KM)L76P/(kcat/KM)control [1]: 1.7
4 | R49F_L76P variant TEV protease (N-terminal His tag; R49F, L56V, L76P, S135G, S219V) (protein) GHHHHHHHGESLFKGPRDYNPISSTICHLTNESDGHTTSLYGIGFGPFIITNKHLFFRNNGTLVVQSLHGVFKVKNTTTLQQHPIDGRDMIIIRMPKDFPPFPQKLKFREPQREERICLVTTNFQTKSMSSMVSDTSCTFPSGDGIFWKHWIQTKDGQCGSPLVSTRDGFIVGIHSASNFTNTNNYFTSVPKNFMELLTNQEAQQWVSGWRLNADSVLWGGHKVFMVKPEEPFQPVKEATQLMNE | – | y = -13.518x - 0.0413 | all variants performed better that the control with the R49F_L76P variant (SEQ ID NO: 11) displaying the highest activity | the R49F_L76P variant reached almost 100% cleavage at 0.5 µM | the R49F_L76P variant cleaved 97% of the substrate | the R49F_L76P variant cleaved 86% of the substrate | Ratio kR49F-L76P/kcontrol = (kcat/KM)R49F-L76P/(kcat/KM)control [1]: 2.6; cleavage of the substrate, 4° C., 1 hour [2]: The variant protease achieved 85% cleavage in just 1 hour at 4 °C; cleavage of the substrate, 4° C., 3 hours [2]: The variant TEV protease cleaved 98% of the substrate in 3 hours; cleavage of the substrate, 4° C., 5 hours [2]: 99% in 5 hours
5 | control TEV protease (TEV protease triple variant L56V, S135G, S219V with N-terminal His tag) (protein) GHHHHHHHGESLFKGPRDYNPISSTICHLTNESDGHTTSLYGIGFGPFIITNKHLFRRNNGTLVVQSLHGVFKVKNTTTLQQHLIDGRDMIIIRMPKDFPPFPQKLKFREPQREERICLVTTNFQTKSMSSMVSDTSCTFPSGDGIFWKHWIQTKDGQCGSPLVSTRDGFIVGIHSASNFTNTNNYFTSVPKNFMELLTNQEAQQWVSGWRLNADSVLWGGHKVFMVKPEEPFQPVKEATQLMNE | – | – | – | 2 µM of the control TEV protease was needed to reach the same mark | Control TEV protease cleaved the substrate by 73%; also recorded: the control TEV protease cleaved 77% of the substrate | the control TEV protease cleaved 64% of the substrate | –
6 | R49A_L76P variant TEV protease (triple variant further comprising R49A and L76P), expressed in vivo (protein) GESLFKGPRDYNPISSTICHLTNESDGHTTSLYGIGFGPFIITNKHLFARNNGTLVVQSLHGVFKVKNTTTLQQHPIDGRDMIIIRMPKDFPPFPQKLKFREPQREERICLVTTNFQTKSMSSMVSDTSCTFPSGDGIFWKHWIQTKDGQCGSPLVSTRDGFIVGIHSASNFTNTNNYFTSVPKNFMELLTNQEAQQWVSGWRLNADSVLWGGHKVFMVKPEEPFQPVKEATQLMNE | – | – | all variants performed better that the control | – | – | – | –
7 | R49I_L76P variant TEV protease (triple variant further comprising R49I and L76P), expressed in vivo (protein) GESLFKGPRDYNPISSTICHLTNESDGHTTSLYGIGFGPFIITNKHLFIRNNGTLVVQSLHGVFKVKNTTTLQQHPIDGRDMIIIRMPKDFPPFPQKLKFREPQREERICLVTTNFQTKSMSSMVSDTSCTFPSGDGIFWKHWIQTKDGQCGSPLVSTRDGFIVGIHSASNFTNTNNYFTSVPKNFMELLTNQEAQQWVSGWRLNADSVLWGGHKVFMVKPEEPFQPVKEATQLMNE | – | – | all variants performed better that the control | – | – | – | –
8 | R49G_L76P variant TEV protease (triple variant further comprising R49G and L76P), expressed in vivo (protein) GESLFKGPRDYNPISSTICHLTNESDGHTTSLYGIGFGPFIITNKHLFGRNNGTLVVQSLHGVFKVKNTTTLQQHPIDGRDMIIIRMPKDFPPFPQKLKFREPQREERICLVTTNFQTKSMSSMVSDTSCTFPSGDGIFWKHWIQTKDGQCGSPLVSTRDGFIVGIHSASNFTNTNNYFTSVPKNFMELLTNQEAQQWVSGWRLNADSVLWGGHKVFMVKPEEPFQPVKEATQLMNE | – | – | all variants performed better that the control | – | – | – | –
9 | R49L_L76P variant TEV protease (triple variant further comprising R49L and L76P), expressed in vivo (protein) GESLFKGPRDYNPISSTICHLTNESDGHTTSLYGIGFGPFIITNKHLFLRNNGTLVVQSLHGVFKVKNTTTLQQHPIDGRDMIIIRMPKDFPPFPQKLKFREPQREERICLVTTNFQTKSMSSMVSDTSCTFPSGDGIFWKHWIQTKDGQCGSPLVSTRDGFIVGIHSASNFTNTNNYFTSVPKNFMELLTNQEAQQWVSGWRLNADSVLWGGHKVFMVKPEEPFQPVKEATQLMNE | – | – | all variants performed better that the control | – | – | – | –
